The test concerns the target T1, transferrin receptor protein 1 (TfR1), recombinant extracellular domain Cys89-Phe760 (human, UniProt P02786 89-760).
T1 construct: Human transferrin receptor protein 1 (TfR1/CD71), extracellular domain, Cys89-Phe760; also called CD71; the 89–760 domain of TfR1; source: bought: SinoBiological
Kind of test: ELISA; Maxisorp plates coated with 5 μg/mL of each receptor candidate; serial dilutions of PvRBP1a_(158-650)LTID and LTID (48,000 pM to 187.5 pM and 4,000 pM to 1.28 pM) in blocking solution, 16 hours at 4°C; detected with a TurboID-specific antibody; one-site binding saturation model; triplicates. The following applies: both partners purified.

T1 sequence (P02786 89-760): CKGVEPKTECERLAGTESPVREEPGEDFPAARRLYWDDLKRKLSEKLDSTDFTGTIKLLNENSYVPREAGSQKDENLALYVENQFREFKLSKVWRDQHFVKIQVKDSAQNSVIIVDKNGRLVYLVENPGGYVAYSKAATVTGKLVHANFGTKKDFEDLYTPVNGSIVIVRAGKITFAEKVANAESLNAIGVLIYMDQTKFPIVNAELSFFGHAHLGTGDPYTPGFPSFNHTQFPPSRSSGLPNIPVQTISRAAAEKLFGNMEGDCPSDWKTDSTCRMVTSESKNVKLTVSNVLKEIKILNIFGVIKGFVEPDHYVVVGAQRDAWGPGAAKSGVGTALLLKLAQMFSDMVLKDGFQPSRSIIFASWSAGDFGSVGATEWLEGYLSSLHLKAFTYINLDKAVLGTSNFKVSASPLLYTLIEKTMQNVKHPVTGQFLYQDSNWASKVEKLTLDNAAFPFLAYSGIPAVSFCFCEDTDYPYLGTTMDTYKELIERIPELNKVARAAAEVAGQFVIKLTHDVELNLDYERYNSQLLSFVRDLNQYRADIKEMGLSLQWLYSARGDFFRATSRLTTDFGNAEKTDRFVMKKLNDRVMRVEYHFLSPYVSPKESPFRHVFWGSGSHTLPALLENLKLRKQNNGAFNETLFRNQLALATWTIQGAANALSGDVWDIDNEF

B1: PvRBP1a_(158-650)LTID fusion protein (domain or fragment)
chain: YNSIVDMSEKLKENDKYNLVFDMEIDFVDLQFFNLILELIPKDSQYHTYYEETLKQQVTEYTNSLKTLMDSCISEKDQMIILEYEINYAKRKSIETETLGDKETKLSAVSQAYAKHLESYKGVLKPKLNDIKNNAFSVLKDSYCKDNCGEYVQKYNTMRKNFISSSDQYKMEAYMYIPKSINDYTVLDKILSESNELGIDIQETVNSLKLLGEEISEVSHLYVINSTLIDDAAKKLESINEEDESAEIDLQKFEDNSKALANNYCIFQYIKTLNEPIKKAYESKVIKSNELLSTIIDTLGKSATALQESTFNQEECNKIKTEAEKVKDDAEDIYEKNEQIYYEIPESEDETIADKINDLQYLIDQMNEYKDEIVNNSEFISNRYKNIYENLKETYETELNDIGQLENDTSKVNFYLMQIRKINTEKTKIDESLQTVEKFYKGILDLKEKIYELKIEFEKSVTEINRLQDGESARDLHEEQIKEILDKMAKKVH
notes: Synthetic gene optimised for E. coli, in pET-28a(+) between NcoI and XhoI; About 94 kDa; Details of expression and purification are in the Supplementary Data; also called PvRBP1a (158–650)-TurboID; PvRBP1a_(158-650)LITD
Turning to B1, the Kd was determined as 1.15 nM.
